Data: IntAct's records for PubMed 21236256

B1: Actin filament-associated protein 1 (Gallus gallus (Chicken)), Q90738 (parent)
chain: MEELIVELRLFLELLDHEYLTSTVREKKAVITNILLRIQSSKGFEIKEHVQKPEVANSLPAPPQMPLPEIPQQWLPPDNGPPPLPTSSLPEGYYEEAVPVSPGKAPEYITSNYDSDAMSSSYESYDEEEEDGKGKKMRHQWPSEEASMDLVKDAKICAFLLRKKRFGQWTKLLCVIKENKLLCYKSSKDQQPQMELLLNDCSITYIPKDSKKKKHELKISHQGADALVLAVQSKEQAEQWLKVIKDVCSNCTGTVDSDGPLSSSPVHKTELEKKLSSERPSSDGEGAVENGITTVCNGKEQVKRKKSSKTEAKGTVTKVTGKKITKIIGLGKKKPSTDEQTSSAEEDVPTCGYLNVLSNNRWRERWCRVKDNKLIFHKDRTDLKTHIVSIPLRGCEVIPGLDSKHPLTFRLLRNGQEVAVLEASSSEDMGRWIGMLLAETGSSTDPGALHYDYIDVEMTASVIQAAKQTFCFMNRRVISTNPYRGSTANGYACPSGMALHYDDVPCINGSFKGKKPPATANGITGKVRTLNSQPKKPESVSCVKRTASNAEQYKYGKNRVEAVAKRLQSKEEELLKRKEALRNRLAQLRKERKDLRAAIEVNAGRKTQVILEDKLKKLEEECKTKEAERVNLELELTEVKESLKKALAGGITLGLAIEPKSGTSSPQSPIFKHRTLENSPISSCDTSDTECSIPVNSAAALKRPPSSNNSPCRGHVLRKAKEWEMKNGT

Variants of: B1
Conditions: with src_chick SRC

| effect of a mutation on the interaction | Variant |
| --- | --- |
| decreasing interaction | P71A |
